Test results: patent US20110105404A1 (TIANJIN MEDICAL UNIVERSITY, published 2011)

B1: H103 (peptide)
peptide: HQKLVFFAED
B2: H102 (peptide)
peptide: HKQLPFFEED
B3: H101 (peptide)
peptide: HKQLVFFEED

Tests used:
Aβ1-42 peptide [1] = assay: cell-based or functional assay
Aβ1-42 peptide [2] = assay: cell-based or functional assay; remark: listed apart in the source

Binder | Inhibition (%) of Aβ1-42 aggregation and fibril formation, ThT fluorescence, 44.30 µmol/L peptide with 11.07 µmol/L Aβ1-42, 37° C., 24 h (Aβ1-42 peptide [1]) | T1/2, time point at which the ThT fluorescence intensity reaches the half-peak (Aβ1-42 peptide [2])
B1 | 14.9% | –
B2 | 27.8% | 4 days
B3 | 24.8% | –
